assay: soluble on expression in E. coli; label from the status in PepcDB or PDB records

Sequence | soluble on expression in E. coli
MSLMLSHNPIVEPFALAHATIVTGDKAGTILRNMTIVVGADGRIEQVAPSIETSIPAEYHYLDGTGKIVMPGLINAHTHLFSQGKPLNPKLATPKGQRMVATFAHSPLGKPYMAATVKHNATTLLESGVTTIRTLGDVGYEVVTLRDQIDAGQILGPRILASGPLMAIPEGHGAPLIALTSGTPEEARTAVAQNLKAGVNAIKIAATGGVTDAQEIGEAGSPQMSVEQMRAICDEAHQYGVIVGAHAQSPEGVRRSLLAGVDTIEHGSVLDDELIGMFRHNPNALRGYSALIPTLSAGLPLTLLGQDVTGITDIQLENSKNVVGGMVSGARQAHEAGLMIGVGTDTGMTFVPQYATWRELELLVAYAGFSPAEALHAATAVNASILGVDAETGSLEVGKSADLLVLNANPLDDLRALEHPALVIAAGHPVWRPGPKRFADIDALLDEAYAEGHHHHHH | soluble
GPGSRVRDKKDMDASELELRRVQGSLNKLTDKNFDAVVEEALSPDLVLNPLVLKGAVDIIFNKAMAEPVFSGIYAQLCQRIKVYEQDLVAEAAENPTSELGQLMAAVQAGDEDQKNVNGRVRNALVKRCQEFHDSFVKQPPPRNAEAEEQLRKRNMANIKFVGELYMRSLISHRVILAVCSTALVLGFIPSPKLVTTDADLEMMVSLMNVIGKRFDENAGMALNHVPKDAAAAAHPHDTIWRALNSSMNDPRFSRRIRFLIQNLLEWRNDGWKPKESPAQGSSGGSADDSNNTT | not soluble
MWRSCLRLRDGGRRLLNRPAGGPSASMSPGPTIPSPARAYAPPTERKRFYQNVSITQGEGGFEINLDHRKLKTPQAKLFTVPSEALAIAVATEWDSQQDTIKYYTMHLTTLCNTSLDNPTQRNKDQLIRAAVKFLDTDTICYRVEEPETLVELQRNEWDPIIEWAEKRYGVEISSSTSIMGPSIPAKTREVLVSHLASYNTWALQGIEFVAAQLKSMVLTLGLIDLRLTVEQAVLLSRLEEEYQIQKWGNIEWAHDYELQELRARTAAGTLFIHLCSESTTVKHKLLKE | not soluble
EMKVLVPDTSVIVDGRLTQYLERLKEKVKVVVPEAVVAEIEHQANAGKAIGHTGLEELKKLREIANEGKILLEFYGERPDLWQIRRAKSGEIDNMVREVARELNGVLVTGDQIQRDIAIAKGIDVIYLEAKREPRMRLEDFFDEE | not soluble
MGSDKIHHHHHHMTQLAPDSSIINAQACLSLDEAYEACRKETAQWAKTFYLGTMLLPSIKRRAIWAIYVWCRRTDELMDSAEAQTRPVSELANRLDQWEERTRAMFAGQVLDGLDAVMADTLERFPQSIQPYLDMIEGQRMDLNQHRYATFQQLELYCYRVAGTVGLMTQHVMGLDPAYTTAPWSSSPETSDAAIALGIANQLTNILRDVGEDRGRGRIYIPQEDLDRFGYSEADLMAGRLNSAWKDLMAFQLERAREWFARSEAGVRWLSQDARWPVWASLRLYRGILDSIERLDYDVFNNRAYVSRWMKLVDLPLSYLMAQAR | not soluble
MIMDLASLRAQQIELASSVIREDRLDKDPPDLIAGADVGFEQGGEVTRAAMVLLKYPSLELVEYKVARIATTMPYIPGFLSFREYPALLAAWEMLSQKPDLVFVDGHGISHPRRLGVASHFGLLVDVPTIGVAKKRLCGKFEPLSSEPGALAPLMDKGEQLAWVWRSKARCNPLFIATGHRVSVDSALAWVQRCMKGYRLPEPTRWADAVASERPAFVRYTANQPLEHHHHHH | soluble
MQEKQHIHIGEIIQRLSGRKLPQPLIRLLERLIHQDEINDILDRYGHLEGVDFMTALVGYFHVDIDWNGADRLPSDKRCLFVSNHPLGGLDGICLSHLIGSHYDSDVRYIVNDILFHLRPLRKIFVPVNTRGRQKRESIDRLQEALESDLPVITFPAGFCSRLIEGKVQDTPWKKSFVRQAYASKRDIVPLFFDGLNSKRFYRIERLRQLLGLKFNIGMALLPDEMFRSKGRHFRVFAGRPIPWQSLASAPRDTAEQALHIRSLVYDLSPSALKK | not soluble
MDMDKRSSDLEAALRIVLQQTLNIVLQAQEKLPEANVVPSTPPTSPSTDIGEQMASFWNIPSPNPPATSATSSTSPEEEIPCICFNCWGNVAAAANSKTWKSPNQADFRSAAAPLTEEKSHA | not soluble
MGSDKIHHHHHHMIVLFVDFDYFYAQVEEVLNPSLKGKPVVVCVFSGRFEDSGAVATANYEARKFGVKAGIPIVEAKKILPNAVYLPMRKEVYQQVSSRIMNLLREYSEKIEIASIDEAYLDISDKVRDYREAYNLGLEIKNKILEKEKITVTVGISKNKVFAKIAADMAKPNGIKVIDDEEVKRLIRELDIADVPGIGNITAEKLKKLGINKLVDTLSIEFDKLKGMIGEAKAKYLISLARDEYNEPIRTRVRKSIGRIVTMKRNSRNLEEIKPYLFRAIEESYYKLDKRIPKAIHVVAVTEDLDIVSRGRTFPHGISKETAYSESVKLLQKILEEDERKIRRIGVRFSKFIEAIGLDKFFDT | not soluble
MDRIQENQKKATNLCELYADGNDDDSEKEQQDRGLDAQFLLRSTPEDVEKYMIHVRKQLMEGEGECLVELGAPINSNSKNPKSGLSEEDLDKAADAQLKILEKIPAVGTKVIRRKQTGGGSLFTEVWIIRDPPTEKDFIEARVAVVGNVDAGKSTLLGVLTHSALDDGRGAARTKLFRHKHEFESGRTSSVGNDILGFDVHGNIVNKPDPHNHNLDWVQIGSDCAKLVTFIDLAGHEKYLKTTIFGMTGHMPDYTMLMIGANMGIIGTTKEHLSLALSLHVPVYLVVTKIDMCPANILEETMKNITRLVRSAKKLPILVRNMDDVVHAAVNFPSKKVCPIFQVSNVEGTNLPLLRQFLNIVPLRRQLNENDPAHFQIDDIYWVDGVGTIASGTLLSGTIRLNDILLLGPTSNGDFMPIPIKSIHRKRMPVGIVKCGQSASFALKKIPKKDVRKGMVLVDPKVKPVASMVFEAEILVLHHPTTIKPNYQAMLHIGSVRQTATLVSMGKEVLRTGDRDKVQFKFIRQPEYIRPGTKMVFREGRTKAVGTVSSVVPQESLAQQRAKQKDGRQKQYGKKSMGPKPPNGKPKEKIEKKLDALSIEQLTSAASTSTSST | not soluble
MGSDKIHHHHHHMNRVISVGFEHPKSYLDSNQSVEAKSRIDSYIDKKMDEWNKEVVYAKHLYEPSVNKEYYKRHMIEHVWRIRMSRTVQAKALHQIAKISPEAAQLYARYQDEEMLHDILFKQDALALGVTEDTIKNTEPMFATRLLMGFKYFVAEHENPLGAVAYSYLVEYVTAKITPDQVSNLKSELGSENIKGQVAHINTDLSHDHSGDMWEIVRALLFTESDIEMFIKYIDEIQDLLAMYFKELYEKTIAKNESQAA | not soluble
MNLDDKALFLDAMEDVQPLKRHTDVHWQPTRNLKTPQRIDTLQLDNFLTTGFLDILPLNEPLEFRREGLQQGVIDKLRSGKYPQQASLNLLRQPVETCRKMLFRFILEAQKEGLRNVLIIHGKGREAKSHANIVRSYVARWLTEFEDVQAYCSALPHHGGGGACYVALRKTVQAKQDNWERHAKRSR | not soluble
MTKEAVLYKKEDGRIRCLACARKCLIGEGQVGFCGVRSVRNGKLYLDVYGKIAAAHIDPIEKKPLVHFNPGSKVFSFSTYGCNWMCMYCQNYDISQRRKAEGVELSPEEIVELAMGYDVDGMTYTYNEPAIFSEFAHDVGIVAKRYGLFNTMVSNGYWTPNLVDYVKDFLDAVTIDFKGNGEQKFLRRYTGATSAEPIIETASELSKKGIHVEITDLIIPQIGDDLQAAKQLLTKLYDQLGADIPIHFLRFHPDYKLNYIPWTPVETLERHYKLAKELGFKFVYVGNVPGHPYENTYCPNCGNLVIRRYSFDILEWHLTEDMRCKFCGYKLPIRGKLSRHAFKERFEPVFI | not soluble
SLKIAIVRLSALGDIIQSAVVLQFIKNFKKDIEIHWFVDEKFEGILKNHPLINKLYALPLKDKKILKSLKILLKARKNNYNAVIDLQGLIKSAIVSRILSRNNFGFDKNSLKESFAHNFYNQKLELDYNENVFVRYLSLTSFMLNTDFNVKNLAFKQDIFSVDENLKQLLNNKLKLDKNEKNILIHVGSSVENKIYPKTKLAILCKLLINEFQQTKIWLAWGNVKEYEFAKEVLNLSGIDETHIELAPKFNLEELMAFTKMMNLIIGNDSGPTHLAFALNKASITIFGATPSYRNAFQTHINKIIDAGKKIQNAKHIDKSDFCITRIEEEDIFKLAKGLLN | soluble
MSRKYFYFDYDYYGMSFCEEEITTEPEEKVAYTSNSGGFADEVTGIPKEGHQSSIGEHSCVMPNTQDTGREEPEETSKVAETSEQSLFRIPRKAYRFTPGQLWELQAVFVENQYPDALKRKELAGLLNVDEQKIKDWFNNKRAKYRKIQREILGGKNITPTQEELRMKTLVESKKIIIFQEQEGDGLFWEHQNIDTQNSPLSLLFS | soluble
MAHHHHHHMETENVPLENEENQNENYEQEENTLAQEAEIVLITTSLGGIKSSFFSSLRAHQLLNCKKYIYFSIDANRDTSSAKNLKDIELFNKWKKGMILLSNENGIVLPQILIDGVPLGNDVTLQNLEDEGILDYIIARLKCPNCLIDKSNIEERCPGCKKYYVTLITDDLIQNDSVIRILQGEPYKEPENE | soluble
GSHSMRYFYTAMSRPGRGEPRFIAVGYVDDTQFVRFDSDAASPRTEPRPPWIEQEGPEYWDRNTQIFKTNTQTYRENLRIALRYYNQSEAGSHIIQRMYGCDLGPDGRLLRGHDQSAYDGKDYIALNEDLSSWTAADTAAQITQRKWEAARVAEQLRAYLEGLCVEWLRRYLENGKETLQRADPPKTHVTHHPVSDHEATLRCWALGFYPAEITLTWQRDGEDQTQDTELVETRPAGDRTFQKWAAVVVPSGEEQRYTCHVQHEGLPKPLTLRWEPHH | soluble
MNLAGSTIQAYRQRKIESLAKMSNMSQDDVTTGLRTVQQGLEALREEHSTISNTLETSVKGVKEDEAPLPKQKLSQINDNLDKLVCGVDETSLMLMVFQLTQGMDAQHQKYQAQRRRLCQENAWLRDELSSTQIKLQQSEQMVAQLEEENKHLKYMASIKQFDDGTQSDTKTSVDVGPQPVTNETLQELGFGPEDEEDMNASQFNQPTPANQMAASANVGYEIPARLRTLHNLVIQYASQGRYEVAVPLCKQALEDLEKTSGHDHPDVATMLNILALVYRDQNKYKEAANLLNEALSIREKCLGESHPAVAATLNNLAVLFGKRGKFKDAEPLCKRALEIREKVLGDDHPDVAKQLNNLALLCQNQGKYEEVEKYYKRALEIYESKLGPDDPNVAKTKNNLSSAYLKQGKYKEAEELYKQILTRAHEREFGQISGENKPIWQIAEEREENKHKGEGATANEQAGWAKAAKVDSPTVTTTLKNLGALYRRQGKYEAAETLEDVALRAKKQMSESRRMERSVMY | not soluble
MGSDKIHHHHHHMKTIMYLHAGAEMYGSDKVLLQLVTGLDKKQFKPIVVLPEHGPLEKALETNDIQTEVVAYPILRRKYFNPKGIFNYASGYFKAEKVLANLAIKYHVDLIHVNTLAVLEGITLKKRIKKPLIWHVHEILLSPKFMWKLTAYLSAKYADKIVVVSNATGEHLKKAGYAKENQIVTIYNGINIPKGLENSDFRQEFDIPKNAFVFGHVGRINAWKGQEDFLKASLKLMSNYSKVHVLFSGNAYKGEEWREEKLKKEINESGFSDRIHYLGFQHEIRKVFNTMNVFVSSSIRPDPFPMVTLEAMANSKPIVSYDHGGPSELIVNAKTGYLVQPHNIDDLSLKMSMLINPKLESKFGVVGRKRVLSEFSETKFLQNFSFLYGDM | not soluble

Source: the DeepSol protein solubility set
